According to PMC4908583:

Biological target: FPRL1 (formyl peptide receptor-like 1) inhibitory protein (FLIPr) (S. aureus) (UniProt Q2FZC0)
Experiment: BLI

FPRL1 (formyl peptide receptor-like 1) inhibitory protein (FLIPr) (S. aureus), sequence (Q2FZC0 25-133): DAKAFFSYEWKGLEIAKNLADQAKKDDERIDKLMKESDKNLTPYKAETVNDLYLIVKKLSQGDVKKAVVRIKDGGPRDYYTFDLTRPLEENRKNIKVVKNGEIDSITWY

Row | Substance | Kd
1 | complement component 1q subcomponent A (C1QA) (from UniProt P02745 23-245) (natural protein) | 3.2 nM
2 | complement component 1q subcomponent B (C1QB) (from UniProt P02746 28-253) (natural protein) | 2.1 nM
3 | complement component 1q subcomponent C (C1QC) (from UniProt P02747 29-245) (natural protein) | 9.9 nM
